Measured values: the supplement of paper PMC7877785
± gives the uncertainty stated by the source.

Experiment: self-splicing fitness, log relative to wild type (ln ratio); higher = more splicing; Tetrahymena group I intron in knt gene, E. coli kanamycin selection, DiMSum; sequences stand for … in CUCUCU…GGAGGGAAAAGUUAUCAGGCAUGCACCUGGUAGCUAGUCUUUAAACCAAUAGAUUGCAUCGGUUUAAAAGGCAAGACCGUCAAAUUGCGGGAAAGGGGUCAACAGCCGUUCAGUACCAAGUCUCAGGGGAAACUUUGAGAUGGCCUUGCAAAGGGUAUGGUAAUAAGCUGACGGACAUGGUCCUAACCACGCAGCCAAGUCCUAAGUCAACAGAUCUUCUGUUGAUAUGGAUGCAGUUCACAGACUAAAUGUCGGUCGGGGAAGAUGUAUUCUUCUCAUAAGAUAUAGUCGGACCUCUCCUUAAUGGGAGCUAGCGGAUGAAGUGAUGCAACACUGGAGCCGCUGGGAACUAAUUUGUAUGCGAAAGUAUAUUGAUUAGUUUUGGAGUACUCGUGGUCG
Procedure, shortened: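 Library with all eight P1ex-region intron nucleotides randomised, intron inside the knt kanamycin-resistance gene on pET-22b(+), in E. coli BL21(DE3). Cells grew overnight at 37°C or 30°C on LB agar with or without 25 μg/mL kanamycin (plus 100 μg/mL carbenicillin, 50 μM IPTG, 0.2% rhamnose), in six replicate transformations. Pooled colonies were amplicon-sequenced on Illumina HiSeq 2500. DiMSum fitness is the error-weighted combination of wild-type-normalised replicate fold changes, kanamycin versus none.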

| Sequence | self-splicing fitness (ln) (30 °C) | self-splicing fitness (ln) (37 °C) |
| --- | --- | --- |
| AUCAAGCAAUAUUACGUCUA | -0.821 ± 0.073 | -0.438 ± 0.076 |
| AUCAAGCAAUAUUACGUCUG | -1.16 ± 0.062 | -0.603 ± 0.076 |
| AUCAAGCAAUAUUACGUUCG | -1.5 ± 0.086 | -0.132 ± 0.091 |
| AUCAAGCAAUAUUACGUUUA | -1.73 ± 0.1 | -1.31 ± 0.093 |
| AUCAAGCAAUAUUACGUUUG | -2.87 ± 0.15 | -2.43 ± 0.18 |
| AUCCAGCAAUAUUACGAACC | -0.394 ± 0.1 | -0.346 ± 0.15 |
| AUCCAGCAAUAUUACGAACG | -0.746 ± 0.08 | -0.625 ± 0.12 |
| AUCCAGCAAUAUUACGACCC | -1.24 ± 0.071 | -0.202 ± 0.089 |
| AUCCAGCAAUAUUACGACCU | -1.86 ± 0.2 | 0.313 ± 0.18 |
| AUCCAGCAAUAUUACGACGC | -1.16 ± 0.12 | -0.49 ± 0.15 |
| AUCCAGCAAUAUUACGAGCC | -3.17 ± 0.25 | -3.32 ± 0.33 |
| AUCCAGCAAUAUUACGAUGA | -0.862 ± 0.086 | -0.285 ± 0.094 |
| AUCCAGCAAUAUUACGAUGG | -3.82 ± 0.27 | -2.85 ± 0.25 |
| AUCCAGCAAUAUUACGAUUC | -1.5 ± 0.11 | -0.86 ± 0.12 |
| AUCCAGCAAUAUUACGCAAU | -1.38 ± 0.064 | -0.773 ± 0.089 |
| AUCCAGCAAUAUUACGCAGU | -2.72 ± 0.11 | -0.839 ± 0.09 |
| AUCCAGCAAUAUUACGGCAG | -1.78 ± 0.085 | -0.158 ± 0.097 |
| AUCCAGCAAUAUUACGGGAA | -1.17 ± 0.079 | -0.654 ± 0.082 |
| AUCCAGCAAUAUUACGGGGG | -3.15 ± 0.16 | -1.96 ± 0.15 |
| AUCCAGCAAUAUUACGGGGU | -4.35 ± 0.18 | -2.19 ± 0.13 |
| AUCCAGCAAUAUUACGGUAC | -1.77 ± 0.12 | -0.693 ± 0.14 |
| AUCCAGCAAUAUUACGUAGG | -2.91 ± 0.14 | -1.49 ± 0.12 |
| AUCCAGCAAUAUUACGUUUC | -4.16 ± 0.25 | -2.05 ± 0.2 |
| AUCGAGCAAUAUUACGAGAC | -1.99 ± 0.32 |  |
| AUCGAGCAAUAUUACGAGCG | -2.35 ± 0.33 | -1.81 ± 0.27 |
| AUCGAGCAAUAUUACGCACU | -1.25 ± 0.12 | -0.213 ± 0.14 |

| Sequence | self-splicing fitness (ln) (30 °C) | self-splicing fitness (ln) (37 °C) |
| --- | --- | --- |
| AUCGAGCAAUAUUACGCAUG | -3.62 ± 0.37 | -2.62 ± 0.26 |
| AUCGAGCAAUAUUACGCCCU | -3.05 ± 0.36 |  |
| AUCGAGCAAUAUUACGCGCG | -2.29 ± 0.15 | -0.653 ± 0.16 |
| AUCGAGCAAUAUUACGGUGC | -2.54 ± 0.16 | -3.15 ± 0.43 |
| AUCGAGCAAUAUUACGGUGU | -2.74 ± 0.1 | -1.71 ± 0.14 |
| AUCGAGCAAUAUUACGUCAA | -2.72 ± 0.25 | -1.3 ± 0.29 |
| AUCGAGCAAUAUUACGUCAC |  | -1.29 ± 0.45 |
| AUCGAGCAAUAUUACGUUCG | -3.25 ± 0.2 | -2.52 ± 0.24 |
| AUCUAGCAAUAUUACGAAUU | -2.94 ± 0.18 | -1.74 ± 0.19 |
| AUCUAGCAAUAUUACGACUA | -0.918 ± 0.2 | -0.511 ± 0.16 |
| AUCUAGCAAUAUUACGAGCA | -0.993 ± 0.18 | -0.654 ± 0.2 |
| AUCUAGCAAUAUUACGCAAA | -2.59 ± 0.29 | -3.24 ± 0.39 |
| AUCUAGCAAUAUUACGCAGC | -2.64 ± 0.35 | -2.06 ± 0.31 |
| AUCUAGCAAUAUUACGCGCU | -1.97 ± 0.23 | -0.909 ± 0.2 |
| AUCUAGCAAUAUUACGCUAA | -2.07 ± 0.12 | -0.871 ± 0.12 |
| AUCUAGCAAUAUUACGCUGU | -1.61 ± 0.14 | -1.17 ± 0.18 |
| AUCUAGCAAUAUUACGCUUU | -2.3 ± 0.17 | -0.151 ± 0.12 |
| AUCUAGCAAUAUUACGGAUA | -3 ± 0.46 | -2.05 ± 0.26 |
| AUCUAGCAAUAUUACGGCGA | -0.505 ± 0.14 | -0.448 ± 0.16 |
| AUCUAGCAAUAUUACGGUAU | -1.54 ± 0.1 | -1.19 ± 0.13 |
| AUCUAGCAAUAUUACGGUUC | -2.94 ± 0.32 | -2.34 ± 0.32 |
| AUCUAGCAAUAUUACGUAAA | -2.41 ± 0.15 | -1.29 ± 0.14 |
| AUCUAGCAAUAUUACGUACG | -2.01 ± 0.23 | -1.04 ± 0.2 |
| AUCUAGCAAUAUUACGUCGU | -0.83 ± 0.1 | -1.21 ± 0.11 |
| AUCUAGCAAUAUUACGUGAG | -0.412 ± 0.095 | -0.00344 ± 0.17 |
| AUCUAGCAAUAUUACGUGGU |  | -2.85 ± 0.38 |

| Sequence | self-splicing fitness (ln) (30 °C) | self-splicing fitness (ln) (37 °C) |
| --- | --- | --- |
| AUCUAGCAAUAUUACGUUCG | -1.28 ± 0.091 | -0.393 ± 0.11 |
| AUCUAGCAAUAUUACGUUGC | -3.28 ± 0.28 | -3.03 ± 0.37 |
| AUGAAGCAAUAUUACGAACA | -0.423 ± 0.1 | 0.795 ± 0.15 |
| AUGAAGCAAUAUUACGAAGG | -2.57 ± 0.18 | -0.569 ± 0.19 |
| AUGAAGCAAUAUUACGAAGU | -1.21 ± 0.1 | -0.533 ± 0.12 |
| AUGAAGCAAUAUUACGACAG | 0.129 ± 0.068 | 0.414 ± 0.095 |
| AUGAAGCAAUAUUACGAGCA | -0.665 ± 0.084 | -0.299 ± 0.083 |
| AUGAAGCAAUAUUACGCAUA | -0.0747 ± 0.071 | -0.57 ± 0.082 |
| AUGAAGCAAUAUUACGCAUG | -0.801 ± 0.077 | 0.175 ± 0.085 |
| AUGAAGCAAUAUUACGCGUA | -0.537 ± 0.061 | -0.226 ± 0.07 |
| AUGAAGCAAUAUUACGCUUU | -3.68 ± 0.2 | -2.11 ± 0.21 |
| AUGAAGCAAUAUUACGGAUC | -0.696 ± 0.09 | -0.0788 ± 0.099 |
| AUGAAGCAAUAUUACGGGAA | -1.83 ± 0.11 | -0.953 ± 0.14 |
| AUGAAGCAAUAUUACGGUAA | -1.22 ± 0.065 | -0.5 ± 0.088 |
| AUGAAGCAAUAUUACGGUCU | -0.0448 ± 0.069 | 0.658 ± 0.087 |
| AUGAAGCAAUAUUACGUACC | -0.639 ± 0.067 | 0.16 ± 0.1 |
| AUGAAGCAAUAUUACGUCAU | -2.43 ± 0.093 | -1.19 ± 0.083 |
| AUGAAGCAAUAUUACGUCCC | 0.721 ± 0.15 | -0.534 ± 0.14 |
| AUGAAGCAAUAUUACGUGUG | -1.18 ± 0.059 | -0.763 ± 0.078 |
| AUGCAGCAAUAUUACGAAUG | -2.15 ± 0.17 | -2.51 ± 0.28 |
| AUGCAGCAAUAUUACGACCG | -1.66 ± 0.29 | -1.07 ± 0.3 |
| AUGCAGCAAUAUUACGACUA | -0.708 ± 0.12 | -0.187 ± 0.11 |
| AUGCAGCAAUAUUACGAGGC | -1.94 ± 0.23 | -2.34 ± 0.33 |
| AUGCAGCAAUAUUACGAUCG | -1.8 ± 0.084 | -1.16 ± 0.11 |
